{"source": "paper PMC8813930", "about": "“The toposiomerase IIIalpha-RMI1-RMI2 complex orients human Bloom’s syndrome helicase for efficient disruption of D-loops”", "key": {"[1]": {"biological_target": "T1, BLM-dH (Homo sapiens, UniProt P54132 642-1191)", "T1 sequence (P54132 642-1191)": "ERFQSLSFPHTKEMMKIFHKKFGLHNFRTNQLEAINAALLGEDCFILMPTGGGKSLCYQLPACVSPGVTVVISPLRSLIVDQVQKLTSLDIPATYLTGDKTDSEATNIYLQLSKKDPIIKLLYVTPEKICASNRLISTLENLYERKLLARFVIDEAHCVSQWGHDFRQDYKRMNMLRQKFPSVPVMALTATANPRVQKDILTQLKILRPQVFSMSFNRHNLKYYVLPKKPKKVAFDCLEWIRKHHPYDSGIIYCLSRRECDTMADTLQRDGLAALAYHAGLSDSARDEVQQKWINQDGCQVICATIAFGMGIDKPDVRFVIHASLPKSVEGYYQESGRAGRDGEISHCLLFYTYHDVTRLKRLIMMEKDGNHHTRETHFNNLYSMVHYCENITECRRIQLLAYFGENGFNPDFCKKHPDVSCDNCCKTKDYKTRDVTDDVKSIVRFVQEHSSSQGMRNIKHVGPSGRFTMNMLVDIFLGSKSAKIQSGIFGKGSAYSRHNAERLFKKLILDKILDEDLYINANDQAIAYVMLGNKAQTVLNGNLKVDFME", "assay": "competition fluorescence anisotropy; vs ss54-FLU; 5 mM MgCl2; 50 mM Tris-HCl pH 7.5, 50 mM NaCl, 1 mM DTT, 5 mM MgCl2, 50 µg/mL BSA, 25 °C; 10 nM labeled DNA in direct titrations", "details": "protein: recombinant, label: 5'-Cy3 on D3"}, "[2]": {"biological_target": "T2, BLMFL (Homo sapiens, UniProt P54132 1-1417)", "T2 sequence (P54132 whole entry)": "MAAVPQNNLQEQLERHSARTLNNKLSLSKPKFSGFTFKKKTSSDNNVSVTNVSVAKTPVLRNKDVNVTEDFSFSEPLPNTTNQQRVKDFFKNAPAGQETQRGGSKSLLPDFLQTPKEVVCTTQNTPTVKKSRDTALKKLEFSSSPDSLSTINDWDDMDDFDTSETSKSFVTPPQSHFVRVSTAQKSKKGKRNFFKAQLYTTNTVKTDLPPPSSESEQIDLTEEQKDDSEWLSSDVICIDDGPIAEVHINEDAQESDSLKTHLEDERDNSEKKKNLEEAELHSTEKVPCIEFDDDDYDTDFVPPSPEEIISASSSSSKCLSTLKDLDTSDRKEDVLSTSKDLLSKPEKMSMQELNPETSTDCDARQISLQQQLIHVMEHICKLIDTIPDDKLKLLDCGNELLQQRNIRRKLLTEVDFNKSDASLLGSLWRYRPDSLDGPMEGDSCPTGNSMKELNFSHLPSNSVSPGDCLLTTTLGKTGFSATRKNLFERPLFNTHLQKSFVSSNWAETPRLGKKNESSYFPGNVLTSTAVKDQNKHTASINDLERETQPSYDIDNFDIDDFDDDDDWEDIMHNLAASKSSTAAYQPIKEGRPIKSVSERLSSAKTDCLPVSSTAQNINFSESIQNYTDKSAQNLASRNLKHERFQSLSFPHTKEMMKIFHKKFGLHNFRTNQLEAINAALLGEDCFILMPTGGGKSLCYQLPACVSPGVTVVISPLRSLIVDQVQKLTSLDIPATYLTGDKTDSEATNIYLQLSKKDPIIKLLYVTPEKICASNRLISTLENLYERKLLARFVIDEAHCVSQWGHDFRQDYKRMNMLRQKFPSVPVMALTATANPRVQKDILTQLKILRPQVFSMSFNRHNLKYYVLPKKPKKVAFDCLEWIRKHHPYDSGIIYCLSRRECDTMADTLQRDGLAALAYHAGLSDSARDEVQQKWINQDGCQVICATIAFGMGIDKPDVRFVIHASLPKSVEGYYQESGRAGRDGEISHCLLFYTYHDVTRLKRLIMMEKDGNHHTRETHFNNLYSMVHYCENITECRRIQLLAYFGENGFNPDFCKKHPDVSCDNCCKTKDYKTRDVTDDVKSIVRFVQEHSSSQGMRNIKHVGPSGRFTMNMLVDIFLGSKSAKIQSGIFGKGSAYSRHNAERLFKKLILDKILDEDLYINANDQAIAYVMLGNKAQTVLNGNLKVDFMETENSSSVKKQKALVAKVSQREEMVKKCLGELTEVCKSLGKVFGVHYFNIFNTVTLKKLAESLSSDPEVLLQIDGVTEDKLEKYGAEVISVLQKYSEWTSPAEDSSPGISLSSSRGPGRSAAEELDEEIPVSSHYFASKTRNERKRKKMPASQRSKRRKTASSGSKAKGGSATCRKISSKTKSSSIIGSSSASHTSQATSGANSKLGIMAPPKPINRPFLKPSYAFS", "assay": "competition fluorescence anisotropy; vs ss54-FLU; 5 mM MgCl2; 50 mM Tris-HCl pH 7.5, 50 mM NaCl, 1 mM DTT, 5 mM MgCl2, 50 µg/mL BSA, 25 °C; 10 nM labeled DNA in direct titrations", "details": "protein: recombinant, label: 5'-Cy3 on D3"}, "[3]": {"biological_target": "T3, BLM-dWH (Homo sapiens, UniProt P54132 642-1077)", "T3 sequence (P54132 642-1077)": "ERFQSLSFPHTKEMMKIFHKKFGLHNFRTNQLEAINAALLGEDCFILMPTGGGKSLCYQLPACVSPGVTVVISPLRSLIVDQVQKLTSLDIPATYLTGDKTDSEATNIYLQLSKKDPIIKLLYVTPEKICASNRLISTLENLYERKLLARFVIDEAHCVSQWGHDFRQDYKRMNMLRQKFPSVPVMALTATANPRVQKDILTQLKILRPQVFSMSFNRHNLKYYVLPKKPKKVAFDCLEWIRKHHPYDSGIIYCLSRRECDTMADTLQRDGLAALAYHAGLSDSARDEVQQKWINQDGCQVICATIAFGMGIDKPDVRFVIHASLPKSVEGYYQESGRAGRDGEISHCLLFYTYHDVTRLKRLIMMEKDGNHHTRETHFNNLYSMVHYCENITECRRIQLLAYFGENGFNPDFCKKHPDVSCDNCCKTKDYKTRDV", "assay": "competition fluorescence anisotropy; vs ss54-FLU; 5 mM MgCl2; 50 mM Tris-HCl pH 7.5, 50 mM NaCl, 1 mM DTT, 5 mM MgCl2, 50 µg/mL BSA, 25 °C; 10 nM labeled DNA in direct titrations", "details": "protein: recombinant, label: 5'-Cy3 on D3"}, "[4]": {"biological_target": "T4, BLMCR (Homo sapiens, UniProt P54132 642-1290)", "T4 sequence (P54132 642-1290)": "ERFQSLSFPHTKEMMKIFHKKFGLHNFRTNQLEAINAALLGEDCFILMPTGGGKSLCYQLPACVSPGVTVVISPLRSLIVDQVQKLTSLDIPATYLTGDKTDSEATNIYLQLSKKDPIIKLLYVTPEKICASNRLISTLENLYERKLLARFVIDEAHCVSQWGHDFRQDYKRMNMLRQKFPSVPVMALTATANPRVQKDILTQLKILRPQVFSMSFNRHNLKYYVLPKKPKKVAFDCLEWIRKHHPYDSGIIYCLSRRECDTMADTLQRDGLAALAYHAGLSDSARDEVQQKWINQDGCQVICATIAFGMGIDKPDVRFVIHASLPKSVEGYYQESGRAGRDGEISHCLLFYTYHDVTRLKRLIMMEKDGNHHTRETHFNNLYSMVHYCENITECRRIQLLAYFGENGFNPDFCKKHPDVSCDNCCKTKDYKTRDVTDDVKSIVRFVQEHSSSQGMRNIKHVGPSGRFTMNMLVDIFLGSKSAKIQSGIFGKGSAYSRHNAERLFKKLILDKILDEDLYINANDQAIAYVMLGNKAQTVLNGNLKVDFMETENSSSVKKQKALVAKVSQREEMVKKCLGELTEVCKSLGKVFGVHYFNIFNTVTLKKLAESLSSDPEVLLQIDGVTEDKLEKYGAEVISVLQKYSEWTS", "assay": "competition fluorescence anisotropy; vs ss54-FLU; 5 mM MgCl2; 50 mM Tris-HCl pH 7.5, 50 mM NaCl, 1 mM DTT, 5 mM MgCl2, 50 µg/mL BSA, 25 °C; 10 nM labeled DNA in direct titrations", "details": "protein: recombinant, label: 5'-Cy3 on D3"}, "[5]": {"biological_target": "TOPOIIIalpha (TRR complex);RMI1 (TRR complex);RMI2 (TRR complex) (Homo sapiens;Homo sapiens;Homo sapiens, UniProt Q13472;Q9H9A7;Q96E14 1-1001;1-625;1-147, ||)", "sequence (Q13472 whole entry, chain 1 of 3)": "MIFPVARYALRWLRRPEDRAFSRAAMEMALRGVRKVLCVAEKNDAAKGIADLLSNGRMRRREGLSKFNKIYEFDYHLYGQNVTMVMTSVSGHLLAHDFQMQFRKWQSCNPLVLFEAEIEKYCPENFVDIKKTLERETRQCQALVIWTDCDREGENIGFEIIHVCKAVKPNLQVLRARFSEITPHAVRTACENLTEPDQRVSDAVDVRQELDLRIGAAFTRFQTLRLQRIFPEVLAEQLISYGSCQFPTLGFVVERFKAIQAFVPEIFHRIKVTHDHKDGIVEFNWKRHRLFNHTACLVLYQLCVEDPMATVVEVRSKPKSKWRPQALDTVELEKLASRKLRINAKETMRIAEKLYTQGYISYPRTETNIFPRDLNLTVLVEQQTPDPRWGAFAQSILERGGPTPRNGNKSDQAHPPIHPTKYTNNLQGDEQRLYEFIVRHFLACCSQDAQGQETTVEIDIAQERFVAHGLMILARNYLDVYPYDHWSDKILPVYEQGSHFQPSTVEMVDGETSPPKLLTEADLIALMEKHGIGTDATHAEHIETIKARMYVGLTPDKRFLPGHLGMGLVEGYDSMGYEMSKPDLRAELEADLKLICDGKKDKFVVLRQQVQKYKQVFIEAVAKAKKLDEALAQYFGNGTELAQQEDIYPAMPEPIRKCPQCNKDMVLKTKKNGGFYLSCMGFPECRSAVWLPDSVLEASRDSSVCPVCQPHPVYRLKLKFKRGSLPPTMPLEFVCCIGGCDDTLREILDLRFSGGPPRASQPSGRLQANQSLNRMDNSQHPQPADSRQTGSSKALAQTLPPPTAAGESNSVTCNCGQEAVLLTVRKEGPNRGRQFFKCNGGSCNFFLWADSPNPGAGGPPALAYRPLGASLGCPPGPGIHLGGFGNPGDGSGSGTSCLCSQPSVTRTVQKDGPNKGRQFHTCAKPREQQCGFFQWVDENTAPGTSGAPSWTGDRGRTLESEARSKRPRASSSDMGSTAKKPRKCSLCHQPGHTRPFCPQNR", "sequence (Q9H9A7 whole entry, chain 2 of 3)": "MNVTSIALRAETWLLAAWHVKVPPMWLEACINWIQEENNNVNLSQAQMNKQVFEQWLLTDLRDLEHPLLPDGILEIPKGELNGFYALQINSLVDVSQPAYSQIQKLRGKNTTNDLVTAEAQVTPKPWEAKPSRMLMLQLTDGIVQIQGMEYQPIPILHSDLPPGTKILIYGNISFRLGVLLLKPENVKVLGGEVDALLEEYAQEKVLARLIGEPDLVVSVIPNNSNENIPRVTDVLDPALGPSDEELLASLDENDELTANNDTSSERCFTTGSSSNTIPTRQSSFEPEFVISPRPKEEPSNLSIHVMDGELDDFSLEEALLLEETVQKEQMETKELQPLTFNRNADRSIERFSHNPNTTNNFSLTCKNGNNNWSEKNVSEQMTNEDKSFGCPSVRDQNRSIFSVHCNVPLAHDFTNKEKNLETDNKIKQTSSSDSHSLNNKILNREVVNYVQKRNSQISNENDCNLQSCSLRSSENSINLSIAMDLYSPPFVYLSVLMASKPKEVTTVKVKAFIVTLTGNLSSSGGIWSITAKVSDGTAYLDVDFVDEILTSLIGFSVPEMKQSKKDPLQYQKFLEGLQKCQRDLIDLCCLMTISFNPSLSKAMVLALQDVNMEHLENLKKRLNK", "sequence (Q96E14 whole entry, chain 3 of 3)": "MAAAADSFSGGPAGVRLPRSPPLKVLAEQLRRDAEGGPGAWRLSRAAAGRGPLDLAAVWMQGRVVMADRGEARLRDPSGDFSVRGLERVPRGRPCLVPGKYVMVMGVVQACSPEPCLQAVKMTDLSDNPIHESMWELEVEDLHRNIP", "assay": "fluorescence anisotropy; 5 mM MgCl2; 50 mM Tris-HCl pH 7.5, 50 mM NaCl, 1 mM DTT, 5 mM MgCl2, 50 µg/mL BSA, 25 °C; 10 nM labeled DNA in direct titrations", "details": "protein: recombinant;recombinant;recombinant, tags: His;;, copies: 1;1;1, label: fluorescein on D3 (in place of Cy3)"}, "[6]": {"biological_target": "T1, BLM-dH", "assay": "fluorescence anisotropy; no ATP; 5 mM MgCl2; 50 mM Tris-HCl pH 7.5, 50 mM NaCl, 1 mM DTT, 5 mM MgCl2, 50 µg/mL BSA, 25 °C; 10 nM labeled DNA in direct titrations", "details": "protein: recombinant; label: 3'-fluorescein; single strand"}, "[7]": {"biological_target": "T2, BLMFL", "assay": "fluorescence anisotropy; no ATP; 5 mM MgCl2; 50 mM Tris-HCl pH 7.5, 50 mM NaCl, 1 mM DTT, 5 mM MgCl2, 50 µg/mL BSA, 25 °C; 10 nM labeled DNA in direct titrations", "details": "protein: recombinant; label: 3'-fluorescein; single strand"}, "[8]": {"biological_target": "T3, BLM-dWH", "assay": "fluorescence anisotropy; no ATP; 5 mM MgCl2; 50 mM Tris-HCl pH 7.5, 50 mM NaCl, 1 mM DTT, 5 mM MgCl2, 50 µg/mL BSA, 25 °C; 10 nM labeled DNA in direct titrations", "details": "protein: recombinant; label: 3'-fluorescein; single strand"}, "[9]": {"biological_target": "T4, BLMCR", "assay": "fluorescence anisotropy; no ATP; 5 mM MgCl2; 50 mM Tris-HCl pH 7.5, 50 mM NaCl, 1 mM DTT, 5 mM MgCl2, 50 µg/mL BSA, 25 °C; 10 nM labeled DNA in direct titrations", "details": "protein: recombinant; label: 3'-fluorescein; single strand"}, "[10]": {"details": "three-stranded D-loop-like structure (D1+D2+D3), D3 3' part invades and pairs with D1"}, "[11]": {"details": "four-stranded D-loop-like structure (D1+D2+D3+D4), D3 3' part pairs with D1, 5' part with D4"}, "[12]": {"details": "20 bp duplex, 3' overhang 21 nt on D3"}}, "data": [{"binder": "DL3 (Cy3) (structured_DNA) DNA 1: GACGCTGCCGAATTCTACCAGTGCCTTGCTAGGACATCTTTGCCCACCTGCAGGTTCACCC DNA 2: GGGTGAACCTGCAGGTGGGCGGCTGCTCATCGTAGGTTAGTTGGTAGAATTCGGCAGCGTC DNA 3: TAAGAGCAAGATGTTCTATAAAAGATGTCCTAGCAAGGCAC", "values": [{"measurement": "Kd", "setting": "[1]; [10]", "value": "< 1", "unit": "nM"}, {"measurement": "Kd", "setting": "[2]; [10]", "value": "1.2 ± 0.8", "unit": "nM"}, {"measurement": "Kd", "setting": "[3]; [10]", "value": "56 ± 7", "unit": "nM"}, {"measurement": "Kd", "setting": "[4]; [10]", "value": "< 1", "unit": "nM"}]}, {"binder": "DL4 (Cy3) (structured_DNA) DNA 1: GACGCTGCCGAATTCTACCAGTGCCTTGCTAGGACATCTTTGCCCACCTGCAGGTTCACCC DNA 2: GGGTGAACCTGCAGGTGGGCGGCTGCTCATCGTAGGTTAGTTGGTAGAATTCGGCAGCGTC DNA 3: TAAGAGCAAGATGTTCTATAAAAGATGTCCTAGCAAGGCAC DNA 4: TATAGAACATCTTGCTCTTA", "values": [{"measurement": "Kd", "setting": "[1]; [11]", "value": "< 1", "unit": "nM"}, {"measurement": "Kd", "setting": "[2]; [11]", "value": "2.3 ± 1.3", "unit": "nM"}, {"measurement": "Kd", "setting": "[3]; [11]", "value": "56 ± 13", "unit": "nM"}, {"measurement": "Kd", "setting": "[4]; [11]", "value": "< 1", "unit": "nM"}]}, {"binder": "DL4 (fluorescein) (structured_DNA) DNA 1: GACGCTGCCGAATTCTACCAGTGCCTTGCTAGGACATCTTTGCCCACCTGCAGGTTCACCC DNA 2: GGGTGAACCTGCAGGTGGGCGGCTGCTCATCGTAGGTTAGTTGGTAGAATTCGGCAGCGTC DNA 3: TAAGAGCAAGATGTTCTATAAAAGATGTCCTAGCAAGGCAC DNA 4: TATAGAACATCTTGCTCTTA", "values": [{"measurement": "Kd", "setting": "[5]; four-stranded D-loop-like structure (D1+D2+D3+D4)", "value": "488 ± 70", "unit": "nM"}]}, {"binder": "DL3 (fluorescein) (structured_DNA) DNA 1: GACGCTGCCGAATTCTACCAGTGCCTTGCTAGGACATCTTTGCCCACCTGCAGGTTCACCC DNA 2: GGGTGAACCTGCAGGTGGGCGGCTGCTCATCGTAGGTTAGTTGGTAGAATTCGGCAGCGTC DNA 3: TAAGAGCAAGATGTTCTATAAAAGATGTCCTAGCAAGGCAC", "values": [{"measurement": "Kd", "setting": "[5]; three-stranded D-loop-like structure (D1+D2+D3)", "value": "13 ± 1", "unit": "nM"}]}, {"binder": "3T (Cy3) (dsDNA) DNA 1: TAAGAGCAAGATGTTCTATAAAAGATGTCCTAGCAAGGCAC DNA 2: TATAGAACATCTTGCTCTTA", "values": [{"measurement": "Kd", "setting": "[1]; [12]", "value": "39 ± 3", "unit": "nM"}, {"measurement": "Kd", "setting": "[2]; [12]", "value": "10 ± 3", "unit": "nM"}, {"measurement": "Kd", "setting": "[3]; [12]", "value": "430 ± 70", "unit": "nM"}, {"measurement": "Kd", "setting": "[4]; [12]", "value": "24 ± 2", "unit": "nM"}]}, {"binder": "ss54-FLU (ssDNA) DNA: TCCTTTTGATAAGAGGTCATTTTTGCGGATGGCTTAGAGCTTAATTGCGCAACG", "values": [{"measurement": "Kd", "setting": "[6]", "value": "61 ± 16", "unit": "nM"}, {"measurement": "Kd", "setting": "[7]", "value": "61 ± 10", "unit": "nM"}, {"measurement": "Kd", "setting": "[8]", "value": "520 ± 30", "unit": "nM"}, {"measurement": "Kd", "setting": "[9]", "value": "74 ± 14", "unit": "nM"}]}]}
